Assay results published in publication PMC4456660.

Assays:
[1] = molecular target: UbcH10~Ub conjugate (UbcH10(C114K)-Avi conjugated with His6-tagged ubiquitin), biotinylated (human) (UniProt O00762); assay: SPR
[2] = molecular target: Ube2S, biotinylated on an N-terminal Avi tag (human) (UniProt Q16763); assay: SPR
Chain of Ube2S, biotinylated on an N-terminal Avi tag (human) (Q16763 whole entry): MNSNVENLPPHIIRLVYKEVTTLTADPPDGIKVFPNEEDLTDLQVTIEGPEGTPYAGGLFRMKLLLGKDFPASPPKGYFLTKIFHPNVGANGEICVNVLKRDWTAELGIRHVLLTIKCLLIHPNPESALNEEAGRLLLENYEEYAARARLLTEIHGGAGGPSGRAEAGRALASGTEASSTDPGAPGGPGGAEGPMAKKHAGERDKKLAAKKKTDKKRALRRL

Chain of UbcH10~Ub conjugate (UbcH10(C114K)-Avi conjugated with His6-tagged ubiquitin), biotinylated (human) (O00762 whole entry C114K): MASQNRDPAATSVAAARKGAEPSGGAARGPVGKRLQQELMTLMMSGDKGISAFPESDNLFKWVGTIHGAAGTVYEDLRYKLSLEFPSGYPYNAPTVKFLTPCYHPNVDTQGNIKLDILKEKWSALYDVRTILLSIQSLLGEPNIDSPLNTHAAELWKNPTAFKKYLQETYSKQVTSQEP

Substance | fold higher affinity than apo APC/C [1] [fold] | Kd [2] [µM]
APC/C^Cdh1.Hsl1 ternary complex (from UniProt Q9H1A4;Q9UJX6;P30260;Q9UJX5;Q9UJX4;Q13042;Q9UJX3;Q9UJX2;Q9UM13;Q9NYG5;Q8NHZ8;Q9BS18;P60006;Q96DE5;Q9UM11;P34244) | 7 | 0.2
apo APC/C (from UniProt Q9H1A4;Q9UJX6;P30260;Q9UJX5;Q9UJX4;Q13042;Q9UJX3;Q9UJX2;Q9UM13;Q9NYG5;Q8NHZ8;Q9BS18;P60006;Q96DE5) (complex) |  | 0.3
